Data taken from article doi:10.1101/2021.07.05.451159.

Experiments:
[1] = biological target: GST; experiment: SEC
[2] = biological target: Gp22 (ALY06965.1), receptor-binding protein of C. difficile phage CDHS-1 (Clostridium difficile phage CDHS-1); experiment: SEC

Row | Substance | stoichiometry N [1] | stoichiometry N [2]
1 | GST (natural protein) | 2 | 
2 | Gp22 (ALY06965.1), receptor-binding protein of C. difficile phage CDHS-1 (natural protein) |  | 2
